Test results published in the DeepSol protein solubility set.

assay: soluble on expression in E. coli; label from the status in PepcDB or PDB records

Sequence | soluble on expression in E. coli
AMNLIFLGTSAGVPTRTRNVTAILLNLQHPTQSGLWLFDCGEGTQHQLLHTAFNPGKLDKIFISHLHGDHLFGLPGLLCSRSMSGIIQPLTIYGPQGIREFVETALRISGSWTDYPLEIVEIGAGEILDDGLRKVTAYPLEHPLECYGYRIEEHDAPGALNAQALKAAGVPPGPLFQELKAGKTITLEDGRQINGADYLAAPVPGKALAIFGDTGPCDAALDLAKGVDVMVHEATLDITMEAKANSRGHSSTRQAATLAREAGVGKLIITHVSSRYDDKGCQHLLRECRSIFPATELANDFTVFNV | soluble
AMNTDLKLPAGKTMTIEDVKQLLERYQMALKKTGEQLGWAYEQAAFPYTVRIHESVLYLQGDGRLYKGMAISVRTAGEETFIDIALPPGATHGDKGKANEFSKWLAKTLGGELHLFSGRTMVFGSA | soluble
ANLYWFRADWFDDADTKAAFKEKYGYDLGVPLNWSAYEDIAEFFTGRDMSALGGPKSAYGSMDYGKKDPSLGWRYTDAWMSMAGMGDKGDPNGLPVDEWGIRVDENSRPVGSCVARGGATNDAAAVYAITKSIEWLQKYAPPQAAGMTFSESGPVPAQGEVAQQIFWYTAFTADMVKEGLPVMNEDGTPKWRMAPSPHGAYWSEGTKVGYQDVGSWTLLKSTPDERAKAAWLYAQFVSSKTVDVKKSHVGLTFVRESTIQHQ | not soluble
APADKPQVLASFTQTSASSQNAWLAANRNQSAWAAYEFDWSTDLCTQAPDNPFGFPFNTACARHDFGYRNYKAAGSFDANKSRIDSAFYEDMKRVCTGYTGEKNTACNSTAWTYYQAVKIFG | soluble
APPAAGQQQPPREPPAAPGAWRQQIQWENNGQVFSLLSLGSQYQPQRRRDPGAAVPGAANASAQQPRTPILLIRDNRTAAARTRTAGSSGVTAGRPRPTARHWFQAGYSTSRAREAGASRAENQTAPGEVPALSNLRPPSRVDGMVGDDPYNPYKYSDDNPYYNYYDTYERPRPGGRYRPGYGTGYFQYGLPDLVADPYYIQASTYVQKMSMYNLRCAAEENCLASTAYRADVRDYDHRVLLRFPQRVKNQGTSDFLPSRPRYSWEWHSCHQHYHSMDEFSHYDLLDANTQRRVAEGHKASFCLEDTSCDYGYHRRFACTAHTQGLSPGCYDTYGADIDCQWIDITDVKPGNYILKVSVNPSYLVPESDYTNNVVRCDIRYTGHHAYASGCTISPY | soluble
AQFQYPFKEVYYLETSPRAHRVILYTKTDRLEFTASLEEVFKQEPRLLQCHRSFLINPANVVHLDKKEKLLFFPNGGSCLIARYKVREVSEAINKLH | not soluble
AQGQQGQVRLLCNTAALTEYLPELLASYLAENPGVSVDVQELPSLRIVQAITQGMADLGIVSTAAPSEHLQTRPFRDDPLVLVTPQAHPLASALAPSFVDSLAHGYVGLGAGSALGLYLEEQALHEGQRMQVRVRAEGFDGV | not soluble
AQVSNGSNSGQMEEINTKEVAQRITTELKRYSIPQAIFAQRVLCRSQGTLSDLLRNPKPWSKLKSGRETFRRMWKWLQEPEFQRMSALRLAACKRKEQEHGKDRGNT | soluble
ARTVVLITGCSSGIGLHLAVRLASDPSQSFKVYATLRDLKTQGRLWEAARALACPPGSLETLQLDVRDSKSVAAARERVTEGRVDVLVCNAGLGLLGPLEALGEDAVASVLDVNVVGTVRMLQAFLPDMKRRGSGRVLVTGSVGGLMGLPFNDVYCASKFALEGLCESLAVLLLPFGVHLSLIECGPVHTAFMEKVLGSPEEVLDRTDIHTFHRFYQYLAHSKQVFREAAQNPEEVAEVFLTALRAPKPTLRYFTTERFLPLLRMRLDDPSGSNYVTAMHREVFGDVPAKAEAGAEAGGGAGPGAEDEAGRSAVGDPELGDPPAAPQ | soluble
ARVDQTPQRITKETGESLTINCVVRDSRCVLSTGYWYRKPPGSRNEESISDGGRYVETVNRGSKSFSLRINDLTVKDSGTYRCKPESRYGSYDAVCAALNDQYGGGTVVTVNAAAHHHHHH | soluble
ASASTPHALLLISIDGLRADMLDRGITPNLSHLAREGVRARWMAPSYPSLTFPNHYTLVTGLRPDHHGIVHNSMRDPTLGGFWLSKSEAVGDARWWGGEPVWVGVENTGQHAATWSWPGSEAAIKGVRPSQWRHYQKGVRLDTRVDAVRGWLATDGAQRNRLVTLYFEHVDEAGHDHGPESRQYADAVRAVDAAIGRLLAGMQRDGTRARTNIIVVSDHGMAEVAPGHAISVEDIAPPQIATAITDGQVIGFEPLPGQQAAAEASVLGAHDHYDCWRKAELPARWQYGSHPRIPSLVCQMHEGWDALFPDKLAKRAQRGTRGSHGYDPALPSMRAVFLAQGPDLAQGKTLPGFDNVDVYALMSRLLGIPAAPNDGNPATLLPALRMPPAPDAR | soluble
ASEEEKAWLMASRQQLAKETSNFGFSLLRKISMRHDGNMVFSPFGMSLAMTGLMLGATGPTETQIKRGLHLQALKPTKPGLLPSLFKGLRETLSRNLELGLTQGSFAFIHKDFDVKETFFNLSKRYFDTECVPMNFRNASQAKRLMNHYINKETRGKIPKLFDEINPETKLILVDYILFKGKWLTPFDPVFTEVDTFHLDKYKTIKVPMMYGAGKFASTFDKNFRCHVLKLPYQGNATMLVVLMEKMGDHLALEDYLTTDLVETWLRNMKTRNMEVFFPKFKLDQKYEMHELLRQMGIRRIFSPFADLSELSATGRNLQVSRVLQRTVIEVDERGTEAVAGILSEITAYSMPPVIKVDRPFHFMIYEETSGMLLFLGRVVNPTLL | soluble
ASELNIYSARHYNADFEIIKKFEEKTGIKVNHTQAKASELIKRLSLEGSNSPADIFITADISNLTEAKNLGLLSPVSSKYLEEFIPAHLRDKDKEWFAITKRARIIAYNKNTNIDISKMKNYEDLAKAEFKGEIVMRSATAPYSKTLLASIIANDGNKEAKAWAKGVLENLATNPKGGDRDQARQVFAGEAKFAVMNTYYIGLLKNSKNPKDVEVGNSLGIIFPNQDNRGTHINISGIAMTKSSKNQDAAKKFMEFMLSPEIQKILTDSNYEFPIRNDVELSQTVKDFGTFKEDQIPVSKIAENIKEAVKIYDEVGFRIEGR | soluble
ASIYKNKKSHEQLSALKGSFCRNQFPGQSEVEHLTKVTGLSTREVRKWFSDRRYHCRNLKGSR | soluble
ASMTGGQQMGRGSASLPACPEESPLLVGPMLIEFNMPVDLELVAKQNPNVKMGGRYAPRDCVSPHKVAIIIPFRNRQEHLKYWLYYLHPVLQRQQLDYGIYVINQAGDTIFNRAKLLNVGFQEALKDYDYTCFVFSDVDLIPMNDHNAYRCFSQPRHISVAMDKFGFSLPYVQYFGGVSALSKQQFLTINGFPNNYWGWGGEDDDIFNRLVFRGMSISRPNAVVGTTRHIRHSRDKKNEPNPQRFDRIAHTKETMLSDGLNSLTYQVLDVQRYPLYTQITVDIGTPS | soluble
ASRPHQWQTDEEGVRTGKCSFPVKYLGHVEVDESRGMHICEDAVKRLKATGKKAVKAVLWVSADGLRVVDEKTKDLIVDQTIEKVSFCAPDRNFDRAFSYICRDGTTRRWICHCFMAVKDTGERLSHAVGCAFAACLERKQKR | soluble
ASVKDTYTDRLDDWNGIIAGNQYYDSKNDQMAKLNQELEGKVADSLSSISSQADRIYLWEKFSNYKTSANLTATYRKLEEMAKQVTNPSSRYYQDETVVRTVRDSMEWMHKHVYNSEKSIVGNWWDYEIGTPRAINNTLSLMKEYFSDEEIKKYTDVIEKFVPDPEHFRKTTDNPFKALGGNLVDMGRVKVIAGLLRKDDQEISSTIRSIEQVFKLVDQGEGFYQDGSYIDHTNVAYTGAFGNVLIDGLSQLLPVIQKTKNPIDKDKMQTMYHWIDKSFAPLLVNGELMDMSRGRSISRANSEGHVAAVEVLRGIHRIADMSEGETKQRLQSLVKTIVQSDSYYDVFKNLKTYKDISLMQSLLSDAGVASVPRTSYLSAFNKMDKTAMYNAEKGFGFGLSLFSSRTLNYEHMNKENKRGWYTSDGMFYLYNGDLSHYSDGYWPTVNPYKMPGTTETDAKRADSDTGKVLPSAFVGTSKLDDANATATMDFTNWNQTLTAHKSWFMLKDKIAFLGSNIQNTSTDTAATTIDQRKLESSNPYKVYVNDKEASLTEQEKDYPETQSVFLESSDSKKNIGYFFFKKSSISMSKALQKGAWKDINEGQSDKEVENEFLTISQAHKQNGDSYGYMLIPNVDRATFNQMIKELESSLIENNETLQSVYDAKQGVWGIVKYDDSVSTISNQFQVLKRGVYTIRKEGDEYKIAYYNPETQESAPDQEVFKKLEQHHHHHH | soluble
